Data reported in patent US20220025055A1 (Boehringer Ingelheim, published 2022).

What was measured:
[1] = molecular target: T1, human FLT3 (FMS-like tyrosine kinase 3) (human, UniProt P36888 27-993); experiment: cell-based or functional assay
T1 sequence (looked up): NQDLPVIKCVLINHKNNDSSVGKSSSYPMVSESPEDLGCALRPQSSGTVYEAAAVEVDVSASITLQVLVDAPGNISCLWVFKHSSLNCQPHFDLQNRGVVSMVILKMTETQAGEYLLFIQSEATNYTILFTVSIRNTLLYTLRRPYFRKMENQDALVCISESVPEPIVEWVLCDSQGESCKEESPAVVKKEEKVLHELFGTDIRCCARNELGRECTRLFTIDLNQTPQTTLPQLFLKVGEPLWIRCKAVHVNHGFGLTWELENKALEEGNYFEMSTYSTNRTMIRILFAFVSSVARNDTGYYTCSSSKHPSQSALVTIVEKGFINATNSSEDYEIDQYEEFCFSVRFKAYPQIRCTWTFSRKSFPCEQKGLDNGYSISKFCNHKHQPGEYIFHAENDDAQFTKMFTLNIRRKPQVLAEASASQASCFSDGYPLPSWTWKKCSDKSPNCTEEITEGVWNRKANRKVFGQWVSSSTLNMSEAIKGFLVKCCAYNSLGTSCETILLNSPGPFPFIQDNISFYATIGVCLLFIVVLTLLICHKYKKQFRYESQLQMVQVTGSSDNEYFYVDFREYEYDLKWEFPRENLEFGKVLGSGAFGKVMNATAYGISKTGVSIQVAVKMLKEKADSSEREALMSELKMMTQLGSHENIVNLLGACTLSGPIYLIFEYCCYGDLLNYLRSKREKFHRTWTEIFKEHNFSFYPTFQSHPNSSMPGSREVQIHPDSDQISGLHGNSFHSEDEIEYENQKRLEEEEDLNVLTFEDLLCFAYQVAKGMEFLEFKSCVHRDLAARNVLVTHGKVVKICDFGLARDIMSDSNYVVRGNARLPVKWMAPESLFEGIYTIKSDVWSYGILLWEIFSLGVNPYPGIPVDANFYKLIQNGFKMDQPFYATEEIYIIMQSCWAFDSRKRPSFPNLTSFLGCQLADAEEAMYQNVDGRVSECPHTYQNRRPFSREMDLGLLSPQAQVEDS

cynomolgus FLT3 [2] = molecular target: T2, cynomolgus FLT3 (cynomolgus, UniProt A0A2K5VQ48 27-993); experiment: cell-based or functional assay
T2 sequence: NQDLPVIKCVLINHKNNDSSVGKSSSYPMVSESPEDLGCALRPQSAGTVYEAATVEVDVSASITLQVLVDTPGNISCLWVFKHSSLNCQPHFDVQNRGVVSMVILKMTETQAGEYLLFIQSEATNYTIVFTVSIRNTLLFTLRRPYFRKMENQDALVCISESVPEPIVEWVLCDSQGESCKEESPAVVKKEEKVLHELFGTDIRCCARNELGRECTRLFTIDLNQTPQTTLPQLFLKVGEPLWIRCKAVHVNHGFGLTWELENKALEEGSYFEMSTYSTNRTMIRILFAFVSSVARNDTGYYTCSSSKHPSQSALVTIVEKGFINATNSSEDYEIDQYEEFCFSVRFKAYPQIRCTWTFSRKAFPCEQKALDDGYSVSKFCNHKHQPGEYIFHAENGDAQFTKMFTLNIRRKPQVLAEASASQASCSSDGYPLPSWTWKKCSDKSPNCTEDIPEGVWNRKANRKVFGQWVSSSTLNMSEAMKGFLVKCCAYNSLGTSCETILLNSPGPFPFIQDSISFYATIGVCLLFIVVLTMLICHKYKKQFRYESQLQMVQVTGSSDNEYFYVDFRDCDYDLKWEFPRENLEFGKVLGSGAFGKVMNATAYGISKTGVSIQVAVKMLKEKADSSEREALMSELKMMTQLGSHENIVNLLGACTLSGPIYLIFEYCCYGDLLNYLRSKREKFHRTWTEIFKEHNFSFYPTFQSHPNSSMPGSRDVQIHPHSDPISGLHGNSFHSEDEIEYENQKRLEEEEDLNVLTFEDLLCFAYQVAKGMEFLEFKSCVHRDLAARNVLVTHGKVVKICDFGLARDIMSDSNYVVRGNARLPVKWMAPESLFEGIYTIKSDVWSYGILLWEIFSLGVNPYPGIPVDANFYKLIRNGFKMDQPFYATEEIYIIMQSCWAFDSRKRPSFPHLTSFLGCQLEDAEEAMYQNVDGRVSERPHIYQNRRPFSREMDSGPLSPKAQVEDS

cynomolgus FLT3 [3] = molecular target: T2, cynomolgus FLT3; experiment: flow cytometry on stably expressing cyno FLT3-STAT5-Luciferase cells, AF488 anti-human IgG (H+L) detection
Experimental: (§1) Since NB1113 binds to human FLT3, but not mouse FLT3, the binding and functional activity of NB1113 was evaluated in both human and cynomolgus (cyno) FLT3-expressing systems. Stably expressing human and cyno FLT3-STAT5-Luciferase cells were used for both binding and functional assays. The binding of NB1113 to human or cyno FLT3 was assessed by flow cytometry using different concentrations of NB1113 in PBS+2% FBS, followed by detection using AF488 anti-human IgG (H+L) secondary antibody.

[4] = molecular target: T1, human FLT3 (FMS-like tyrosine kinase 3); experiment: flow cytometry on stably expressing human FLT3-STAT5-Luciferase cells, AF488 anti-human IgG (H+L) detection
Experimental: as §1

mouse FLT3 = molecular target: T3, mouse FLT3 (mouse, UniProt Q00342 28-544, limits assumed); experiment: not described
T3 construct: Named only in one sentence; no assay is described
T3 sequence (looked up): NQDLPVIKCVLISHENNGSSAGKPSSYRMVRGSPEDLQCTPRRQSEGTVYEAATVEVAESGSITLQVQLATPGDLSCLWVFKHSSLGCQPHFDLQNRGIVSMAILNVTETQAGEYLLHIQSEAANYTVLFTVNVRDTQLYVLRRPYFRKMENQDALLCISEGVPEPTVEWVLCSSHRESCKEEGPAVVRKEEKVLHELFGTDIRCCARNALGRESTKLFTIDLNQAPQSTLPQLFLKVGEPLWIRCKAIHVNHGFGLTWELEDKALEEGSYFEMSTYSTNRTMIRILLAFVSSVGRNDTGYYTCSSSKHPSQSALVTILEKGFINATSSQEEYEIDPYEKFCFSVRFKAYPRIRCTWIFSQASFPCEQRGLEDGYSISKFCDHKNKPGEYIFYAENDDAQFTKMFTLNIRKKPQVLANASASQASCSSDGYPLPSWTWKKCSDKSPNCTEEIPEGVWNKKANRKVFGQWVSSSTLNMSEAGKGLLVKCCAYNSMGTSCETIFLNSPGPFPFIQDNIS

- EC50 in human FLT3-STAT5-Luciferase reporter assay [1]: 1.1 nM
- EC50 of expansion of HLA-DR+CD1c+ cells from primary human bone marrow, 12 days [1]: 0.113 nM
- EC50 in cyno FLT3-STAT5-Luciferase reporter assay (cynomolgus FLT3 [2]): 1.6 nM
- EC50 (cynomolgus FLT3 [3]): 0.9 nM
- EC50 [4]: 1.36 nM
- binding result (mouse FLT3): no binding
B1: NB1113 (antibody, V domains shown)
VH: EVQLLESGGGLVQPGGSLRLSCAPSGFTFSNYGMAWVRQAPGKGLEWVSSIHSGGGDTYYRDSVKGRFTISRDNSKNTLYLQMNSLRAEDTAVYYCARGRTPTGYYFDHWGQGTMVTVSS
VL: DIQMTQSPSSLSASVGDRVTITCRASEGIHSGLAWYQQKPGKVPKLLIYNANSLHSGVPSRFSGSGSGTDFTLTISSLQPEDVATYFCQQYYDYPLTFGQGTKLEIK
notes: Light chain variant (N31S in CDR-L1) of humanized NB1063 (VH1 x VL1); The constant regions are not restated for the humanized antibodies; the parent chimera NB1016 is human IgG4PAA (S228P, F234A, L235A) / human kappa; also called NB11113; N31S light chain variant of NB1063
